Target: MtbClpC1^F444S-E288A-E626A (Mycobacterium tuberculosis) (UniProt P9WPC9)
Test: cryo-EM structure

Question: With “MtbClpC1^F444S-E288A-E626A (from UniProt P9WPC9 1-848) (enzyme)” as the substance, how does the stoichiometry N read?
Answer: Its stoichiometry N is 6.

— paper PMC11992174
